Key:
Test in all cases: IEDB peptide-MHC binding, purified MHC/competitive/radioactivity; filed as Kd, often an IC50 or EC50 that approximates it; ≥ and ≤ were set here for values at or beyond the usual limits of such assays
Settings in all cases: source organism: Toxoplasma gondii
HLA-A*33:01 = biological target: HLA-A*33:01
HLA-A*03:01 = biological target: HLA-A*03:01
HLA-A*68:01 = biological target: HLA-A*68:01
HLA-A*31:01 = biological target: HLA-A*31:01
HLA-A*30:01 = biological target: HLA-A*30:01

AVVSLLRLLK
Kd (HLA-A*33:01): 1100 nM
Kd (HLA-A*03:01): 17 nM
Kd (HLA-A*68:01): 94 nM
Kd (HLA-A*31:01): 1300 nM
Kd (HLA-A*30:01): 8.1 nM

STFWPCLLR
Kd (HLA-A*33:01): 3.4 nM
Kd (HLA-A*03:01): 22 nM
Kd (HLA-A*68:01): 0.97 nM
Kd (HLA-A*31:01): 1.2 nM
Kd (HLA-A*30:01): 1270 nM
